This note sets out measurements from PMC2731815.

In general, Kd refers to the concentration at which binding is half-saturated. Read a high Kd as a looser complex.

The target in test [1] is thrombomodulin fragment 4-6 (TM4-6). In words: competition in a kinetic assay.
In test [2] the target is Fl-FPR-inhibited thrombin (UniProt P00734). Nature of the test: other fluorescence titration.

In test [1], “Ser-195 to Ala (S195A) substitution mutant of thrombin (from UniProt P00734 44-622) (enzyme)” displayed a Kd of 9 nM. Turning to “thrombomodulin fragment 4-6 (TM4-6) (domain or fragment)”, the Kd in test [2] worked out at 3.5 nM.
